Measurements taken from IntAct's records for PubMed 25910212.

B1: TERF1-interacting nuclear factor 2 (Homo sapiens), Q9BSI4 (parent)
chain: MATPLVAGPAALRFAAAASWQVVRGRCVEHFPRVLEFLRSLRAVAPGLVRYRHHERLCMGLKAKVVVELILQGRPWAQVLKALNHHFPESGPIVRDPKATKQDLRKILEAQETFYQQVKQLSEAPVDLASKLQELEQEYGEPFLAAMEKLLFEYLCQLEKALPTPQAQQLQDVLSWMQPGVSITSSLAWRQYGVDMGWLLPECSVTDSVNLAEPMEQNPPQQQRLALHNPLPKAKPGTHLPQGPSSRTHPEPLAGRHFNLAPLGRRRVQSQWASTRGGHKERPTVMLFPFRNLGSPTQVISKPESKEEHAIYTADLAMGTRAASTGKSKSPCQTLGGRALKENPVDLPATEQKENCLDCYMDPLRLSLLPPRARKPVCPPSLCSSVITIGDLVLDSDEEENGQGEGKESLENYQKTKFDTLIPTLCEYLPPSGHGAIPVSSCDCRDSSRPL
B2: Progranulin (Homo sapiens), P28799 (parent)
chain: MWTLVSWVALTAGLVAGTRCPDGQFCPVACCLDPGGASYSCCRPLLDKWPTTLSRHLGGPCQVDAHCSAGHSCIFTVSGTSSCCPFPEAVACGDGHHCCPRGFHCSADGRSCFQRSGNNSVGAIQCPDSQFECPDFSTCCVMVDGSWGCCPMPQASCCEDRVHCCPHGAFCDLVHTRCITPTGTHPLAKKLPAQRTNRAVALSSSVMCPDARSRCPDGSTCCELPSGKYGCCPMPNATCCSDHLHCCPQDTVCDLIQSKCLSKENATTDLLTKLPAHTVGDVKCDMEVSCPDGYTCCRLQSGAWGCCPFTQAVCCEDHIHCCPAGFTCDTQKGTCEQGPHQVPWMEKAPAHLSLPDPQALKRDVPCDNVSSCPSSDTCCQLTSGEWGCCPIPEAVCCSDHQHCCPQGYTCVAEGQCQRGSEIVAGLEKMPARRASLSHPRDIGCDQHTSCPVGQTCCPSLGGSWACCQLPHAVCCEDRQHCCPAGYTCNVKARSCEKEVVSAQPATFLARSPHVGVKDVECGEGHFCHDNQTCCRDNRQGWACCPYRQGVCCADRRHCCPAGFRCAARGTKCLRREAPRWDAPLRDPALRQLL
partner: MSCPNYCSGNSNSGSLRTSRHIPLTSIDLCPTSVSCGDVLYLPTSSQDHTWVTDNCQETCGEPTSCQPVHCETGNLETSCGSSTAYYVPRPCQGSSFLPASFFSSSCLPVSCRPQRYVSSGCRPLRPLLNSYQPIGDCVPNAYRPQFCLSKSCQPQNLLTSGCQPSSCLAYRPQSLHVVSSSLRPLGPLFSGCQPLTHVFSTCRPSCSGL
B3: Progranulin (Homo sapiens), P28799 (parent)
chain: B2 chain
partner: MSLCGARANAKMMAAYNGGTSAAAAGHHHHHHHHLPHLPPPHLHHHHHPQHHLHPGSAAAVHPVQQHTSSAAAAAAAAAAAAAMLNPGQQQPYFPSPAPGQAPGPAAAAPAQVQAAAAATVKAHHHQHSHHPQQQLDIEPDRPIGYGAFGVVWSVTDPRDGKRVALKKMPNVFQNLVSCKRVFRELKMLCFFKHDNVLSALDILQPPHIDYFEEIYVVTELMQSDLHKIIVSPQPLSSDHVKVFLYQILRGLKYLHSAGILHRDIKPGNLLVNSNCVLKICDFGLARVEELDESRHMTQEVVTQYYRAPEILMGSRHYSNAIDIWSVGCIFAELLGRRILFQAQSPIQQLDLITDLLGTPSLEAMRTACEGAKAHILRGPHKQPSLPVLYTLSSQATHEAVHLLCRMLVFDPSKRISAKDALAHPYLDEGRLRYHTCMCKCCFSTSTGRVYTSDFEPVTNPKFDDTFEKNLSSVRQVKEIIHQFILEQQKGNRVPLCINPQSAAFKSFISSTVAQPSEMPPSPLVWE
B4: 2'-5'-oligoadenylate synthase 1 (Homo sapiens), P00973-2 (parent)
chain: MMDLRNTPAKSLDKFIEDYLLPDTCFRMQINHAIDIICGFLKERCFRGSSYPVCVSKVVKGGSSGKGTTLRGRSDADLVVFLSPLTTFQDQLNRRGEFIQEIRRQLEACQRERAFSVKFEVQAPRWGNPRALSFVLSSLQLGEGVEFDVLPAFDALGQLTGGYKPNPQIYVKLIEECTDLQKEGEFSTCFTELQRDFLKQRPTKLKSLIRLVKHWYQNCKKKLGKLPPQYALELLTVYAWERGSMKTHFNTAQGFRTVLELVINYQQLCIYWTKYYDFKNPIIEKYLRRQLTKPRPVILDPADPTGNLGGGDPKGWRQLAQEAEAWLNYPCFKNWDGSPVSSWILLVRPPASSLPFIPAPLHEA
B5: LHFPL tetraspan subfamily member 5 protein (Homo sapiens), Q8TAF8 (parent)
chain: MVKLLPAQEAAKIYHTNYVRNSRAVGVMWGTLTICFSVLVMALFIQPYWIGDSVNTPQAGYFGLFSYCVGNVLSSELICKGGPLDFSSIPSRAFKTAMFFVALGMFLIIGSIICFSLFFICNTATVYKICAWMQLAAATGLMIGCLVYPDGWDSSEVRRMCGEQTGKYTLGHCTIRWAFMLAILSIGDALILSFLAFVLGYRQDKLLPDDYKADGTEEV
partner: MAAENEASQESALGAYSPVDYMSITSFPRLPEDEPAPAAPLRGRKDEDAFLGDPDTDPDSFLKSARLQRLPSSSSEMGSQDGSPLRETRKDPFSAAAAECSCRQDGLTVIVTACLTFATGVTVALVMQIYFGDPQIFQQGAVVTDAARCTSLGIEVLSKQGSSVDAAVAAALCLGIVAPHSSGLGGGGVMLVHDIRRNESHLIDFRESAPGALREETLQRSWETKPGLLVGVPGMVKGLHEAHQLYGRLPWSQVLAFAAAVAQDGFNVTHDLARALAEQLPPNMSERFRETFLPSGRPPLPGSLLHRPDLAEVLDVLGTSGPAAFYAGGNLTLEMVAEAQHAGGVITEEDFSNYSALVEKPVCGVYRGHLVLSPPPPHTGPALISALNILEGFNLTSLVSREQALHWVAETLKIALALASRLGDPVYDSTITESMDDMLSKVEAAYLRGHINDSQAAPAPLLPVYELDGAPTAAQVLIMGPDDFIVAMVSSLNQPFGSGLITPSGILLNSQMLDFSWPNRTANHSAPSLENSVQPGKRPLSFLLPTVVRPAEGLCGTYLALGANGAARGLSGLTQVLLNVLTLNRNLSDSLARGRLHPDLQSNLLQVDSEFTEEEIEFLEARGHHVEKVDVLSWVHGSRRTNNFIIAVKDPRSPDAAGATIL

Variants of: B1
Details: with acd_human ACD

Variant	effect of a mutation on the interaction
E281K	with no effect

Variants of: B2
Details: with kr261_human KRTAP26-1, Q6PEX3

Variant	effect of a mutation on the interaction
R432C	disrupting interaction strength
P451L	with no effect
A9D	disrupting interaction strength
P248L	with no effect

Variants of: B3
Details: with nlk_human NLK

Variant	effect of a mutation on the interaction
P248L	with no effect
A9D	disrupting interaction strength
R432C	disrupting interaction strength

Variants of: B4
Details: with exoc5_human EXOC5, O00471
Sequence of exoc5_human EXOC5, O00471 (O00471 whole entry): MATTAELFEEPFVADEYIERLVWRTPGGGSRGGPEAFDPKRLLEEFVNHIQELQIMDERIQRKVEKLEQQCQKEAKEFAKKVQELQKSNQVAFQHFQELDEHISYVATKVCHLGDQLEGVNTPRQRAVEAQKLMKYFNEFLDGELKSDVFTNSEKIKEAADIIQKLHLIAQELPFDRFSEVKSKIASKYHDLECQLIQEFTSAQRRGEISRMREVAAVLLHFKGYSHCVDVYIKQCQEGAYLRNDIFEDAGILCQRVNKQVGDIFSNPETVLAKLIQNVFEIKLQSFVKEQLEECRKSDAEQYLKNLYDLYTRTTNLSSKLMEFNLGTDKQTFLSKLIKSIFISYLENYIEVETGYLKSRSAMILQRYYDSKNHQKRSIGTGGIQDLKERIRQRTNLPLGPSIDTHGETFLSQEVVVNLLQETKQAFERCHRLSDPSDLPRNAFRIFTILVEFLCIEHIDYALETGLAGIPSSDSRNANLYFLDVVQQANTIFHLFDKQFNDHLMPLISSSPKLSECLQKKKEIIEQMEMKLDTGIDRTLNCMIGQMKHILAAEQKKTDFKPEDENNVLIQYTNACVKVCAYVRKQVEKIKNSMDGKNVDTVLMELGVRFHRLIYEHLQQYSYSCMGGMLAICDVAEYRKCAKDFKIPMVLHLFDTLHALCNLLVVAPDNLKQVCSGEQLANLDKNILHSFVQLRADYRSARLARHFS

Variant	effect of a mutation on the interaction
R242Q	with no effect

Variants of: B4
Details: with actn1_human ACTN1, P12814
Sequence of actn1_human ACTN1, P12814 (P12814 whole entry): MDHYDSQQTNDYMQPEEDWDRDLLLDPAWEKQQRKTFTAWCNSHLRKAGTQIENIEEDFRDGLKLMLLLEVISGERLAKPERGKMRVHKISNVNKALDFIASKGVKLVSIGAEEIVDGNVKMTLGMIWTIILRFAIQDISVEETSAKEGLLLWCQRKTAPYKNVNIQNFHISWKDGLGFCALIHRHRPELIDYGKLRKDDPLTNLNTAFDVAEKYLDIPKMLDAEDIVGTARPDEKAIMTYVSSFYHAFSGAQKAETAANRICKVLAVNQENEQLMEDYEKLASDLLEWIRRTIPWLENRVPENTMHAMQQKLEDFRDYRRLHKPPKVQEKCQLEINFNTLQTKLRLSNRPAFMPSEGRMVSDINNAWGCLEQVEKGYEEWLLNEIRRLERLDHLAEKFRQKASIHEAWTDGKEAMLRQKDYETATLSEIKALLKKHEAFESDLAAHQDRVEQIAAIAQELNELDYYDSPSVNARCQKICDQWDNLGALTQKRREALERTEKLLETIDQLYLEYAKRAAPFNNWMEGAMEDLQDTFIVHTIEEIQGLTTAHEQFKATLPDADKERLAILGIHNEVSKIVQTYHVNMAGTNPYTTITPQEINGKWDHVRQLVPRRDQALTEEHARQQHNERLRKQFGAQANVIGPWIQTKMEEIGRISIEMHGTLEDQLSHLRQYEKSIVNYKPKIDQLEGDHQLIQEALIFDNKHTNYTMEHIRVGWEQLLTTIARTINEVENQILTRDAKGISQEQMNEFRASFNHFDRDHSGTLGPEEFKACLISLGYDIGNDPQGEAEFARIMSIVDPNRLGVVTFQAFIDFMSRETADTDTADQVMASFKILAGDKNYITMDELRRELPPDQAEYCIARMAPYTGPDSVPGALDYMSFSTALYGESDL

Variant	effect of a mutation on the interaction
R242Q	with no effect

Variants of: B5
Details: with ggt7_human GGT7, Q9UJ14

Variant	effect of a mutation on the interaction
Y127C	disrupting interaction strength
